The experiment addresses HBV表面抗原蛋白 (HBsAg) (Hepatitis B virus). Put plainly: SPR (Biacore 3000), antibody captured through AHC on a CM5 chip, HBsAg as analyte from 40 nM to 0 nM in 2-fold dilutions.

B1: 抗HBsAg单克隆抗体5G7-2 (antibody, V domains shown)
VH: EVQLQQSGPELVKPGASVKIYCKASGYTFTNARSTWVKQSHGKSLEWIGWINFKINNDGSATPFKGKATLTVDKSSSTAYMELRSLTSEDSAVYYCSRAGRFKLMDWGQGTLVTVSA
VL: DIVMTQSPASLAMSLGKRATISCGGCARTPLLWICNGKWYQQKPGQPPKLLIYLASNKFGGVPARFSGSGSGADFTLTIDPVEGDDVALYYCQQDWNTIYTFGGGTKMEIK
With B1, the Kd was determined as 6.12 nM.

The values above are taken from patent CN113150127A.
